Data reported in patent publication US20250145718A1 (ABL BIO, published 2025).
Changes are numbered by the printed parent chain. Names and notes keep the numbering of the source. Where two headings read alike, the source gives them in different places. One block for each binder: values may come before it.

What was measured:
[1] = biological target: PD-L1 (Biacore kinetics, Example 1.5) (UniProt Q9NZQ7 19-238, limits assumed); experiment: SPR (Biacore), affinity ranking
[2] = biological target: T1, human PD-L1-Fc protein (Sinobio, 10084-H02H) (human, UniProt Q9NZQ7 19-239); experiment: DACE (dual antigen capture ELISA): plate coated with human PD-L1-Fc, then bispecific, then human 4-1BB-His, anti-His HRP
T1 construct: Purchased reagent; not shown: Fc part of the purchased fusion
Description: (§1) Briefly, microtiter plates were coated with 100 ng/well of human PD-L1-Fc protein (Sinobio, 10084-H02H) in PBS at 4° C. overnight, then blocked with 100 μl/well of 1% BSA for 2 hours at 37° C. Three-fold dilutions of each of the BsAbs starting from 100 nM were added to each well and incubated for 2 hours at 37° C. The plates were washed with PBS/Tween and then incubate with 50 ng/well of human 4-1BB-His protein (Sinobio, 16498-H08H) in 1% BSA for 1 hour at 37° C. The plates were washed with PBS/Tween and then incubate with Anti-His HRP (Roche, Cat: 11965085001) for 1 hour at 37° C. After washing, the plates were developed with TMB substrate and analyzed by spectrophotometer at OD 450-650 nm.

[3] = biological target: T2, 4-1BB expressed on Jurkat cells (4-1BB-Jurkat cells; GloResponse NFkB-luc2/4-1BB Jurkat cell line) (human, UniProt Q07011 24-255); experiment: cell-based or functional assay
[4] = biological target: T1, human PD-L1-Fc protein (Sinobio, …); experiment: DACE after incubation in human serum for 3, 7, 14 days at 37 C
Description: as §1, with “Binding activity was analyzed to DACE (Dual antigen captured ELISA) test. Briefly,” for “Briefly,”

[5] = biological target: T3, human 4-1BB-His protein (Sinobio, 16498-H08H) (human, UniProt Q07011 24-186); experiment: DACE (dual antigen capture ELISA): bispecific captured on coated human PD-L1-Fc binds soluble human 4-1BB-His, detected with anti-His HRP
T3 construct: Purchased reagent; not shown: His tag of the purchased protein
Description: as §1

[6] = biological target: T1, human PD-L1-Fc protein (Sinobio, …); experiment: DACE (dual antigen capture ELISA): bispecific titrated on coated human PD-L1-Fc; signal also needs binding of human 4-1BB-His (anti-His HRP)
Description: as §1

[7] = biological target: T1, human PD-L1-Fc protein (Sinobio, …); experiment: DACE after incubation in human serum at 37 C for 0, 3, 7 or 14 days: bispecific titrated on coated human PD-L1-Fc; signal also needs binding of human 4-1BB-His (anti-His HRP)
Description: as §1, with “Binding activity was analyzed to DACE (Dual antigen captured ELISA) test. Briefly,” for “Briefly,”

[8] = biological target: T2, 4-1BB expressed on Jurkat cells …; experiment: cell-based or functional assay; remark: listed apart in the source
[9] = biological target: T3, human 4-1BB-His protein (Sinobio, …); experiment: DACE after incubation in human serum for 3, 7, 14 days at 37 C
Description: as §1, with “Binding activity was analyzed to DACE (Dual antigen captured ELISA) test. Briefly,” for “Briefly,”

human 4-1BB-Fc protein = biological target: T4, human 4-1BB-Fc protein (human, UniProt Q07011 24-186, limits assumed); experiment: ELISA, plate coated with human 4-1BB-Fc, detection with anti-human IgG-HRP, OD 450-630 nm
T4 construct: not shown: Fc part of the fusion
Description: To evaluate the antigen binding activity, the antibody candidates were subjected to ELISA test. Briefly, microtiter plates were coated with human 4-1BB-Fc protein at 0.1 μg/ml in PBS, 100 μl/well at 4° C. overnight, then blocked with 100 μl/well of 5% BSA. […] The plates were washed with PBS/Tween and then incubate with goat-anti-human IgG antibody conjugated with Horse Radish Peroxidase (HRP) for 1 hour at RT. After washing, the plates were developed with TMB substrate and analyzed by spectrophotometer at OD 450-630 nm.

[10] = biological target: T2, 4-1BB expressed on Jurkat cells …; experiment: cell-based or functional assay; remark: listed apart in the source
[11] = biological target: T5, 4-1BB (Octet Red 96 kinetics, Example 2.2(3)) (human, UniProt Q07011 24-186, limits assumed); experiment: BLI (Octet Red 96), affinity ranking
T5 construct: also called human 4-1BB
Excerpt: To explore the binding kinetics of the humanized antibody, this example performed the affinity ranking by using Octet Red 96.

T2 sequence (Q07011 24-255 limits assumed): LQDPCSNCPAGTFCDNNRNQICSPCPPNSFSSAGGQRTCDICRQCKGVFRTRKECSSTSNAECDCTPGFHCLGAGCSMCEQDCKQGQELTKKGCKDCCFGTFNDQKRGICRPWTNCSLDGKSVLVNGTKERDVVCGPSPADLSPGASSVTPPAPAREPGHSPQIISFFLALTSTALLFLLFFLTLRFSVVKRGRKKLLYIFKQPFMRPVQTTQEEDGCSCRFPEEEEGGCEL
Sequence of PD-L1 (Biacore kinetics, Example 1.5) (Q9NZQ7 19-238 limits assumed): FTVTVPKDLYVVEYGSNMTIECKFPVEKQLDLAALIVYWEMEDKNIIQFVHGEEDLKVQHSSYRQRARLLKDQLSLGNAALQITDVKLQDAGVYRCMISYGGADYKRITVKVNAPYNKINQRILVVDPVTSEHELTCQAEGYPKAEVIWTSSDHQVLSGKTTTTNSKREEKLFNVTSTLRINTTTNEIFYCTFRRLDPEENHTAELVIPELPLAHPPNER
T1 sequence (Q9NZQ7 19-239): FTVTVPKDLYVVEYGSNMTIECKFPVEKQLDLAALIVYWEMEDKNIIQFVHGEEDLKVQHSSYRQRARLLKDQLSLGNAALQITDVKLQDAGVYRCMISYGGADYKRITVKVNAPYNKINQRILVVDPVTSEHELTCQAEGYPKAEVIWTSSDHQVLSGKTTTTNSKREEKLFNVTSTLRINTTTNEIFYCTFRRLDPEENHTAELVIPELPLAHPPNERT

B1: H12 (Hu1210-41; Hu1210 VH.4d x Hu1210 VK.1) (antibody, V domains shown)
VH: EVQLVESGGGLVQPGGSLRLSCAASGFTFSSYDMSWVRQAPGKSLEWVATISDAGGYIYYSDSVKGRFTISRDNAKNSLYLQMNSLRDEDTAVYICAREFGKRYALDYWGQGTTVTVSS
VL: DIQMTQSPSSLSASVGDRVTITCKASQDVTPAVAWYQQKPGKAPKLLIYSTSSRYTGVPSRFSGSGSGTDFTFTISSLQPEDIATYYCQQHYTTPLTFGQGTKLEIK
notes: also called WT (H12)
Kd [1]: 6.12 nM | koff [1]: 0.000436 s⁻¹ | kon [1]: 71200 M⁻¹ s⁻¹

B2: B6 (anti-PD-L1 clone derived from Hu1210-41) (antibody, V domains shown)
VH: B1 VH with S61R, F100L, G101P, K102W
VL: B1 VL
Kd [1]: 4.25 nM | koff [1]: 0.000418 s⁻¹ | kon [1]: 98300 M⁻¹ s⁻¹

B3: ABLPNB.03 (H12x41B02; anti-PD-L1 H12 in IgG form and anti-4-1BB 41B02 in scFv form) (bispecific antibody)
heavy: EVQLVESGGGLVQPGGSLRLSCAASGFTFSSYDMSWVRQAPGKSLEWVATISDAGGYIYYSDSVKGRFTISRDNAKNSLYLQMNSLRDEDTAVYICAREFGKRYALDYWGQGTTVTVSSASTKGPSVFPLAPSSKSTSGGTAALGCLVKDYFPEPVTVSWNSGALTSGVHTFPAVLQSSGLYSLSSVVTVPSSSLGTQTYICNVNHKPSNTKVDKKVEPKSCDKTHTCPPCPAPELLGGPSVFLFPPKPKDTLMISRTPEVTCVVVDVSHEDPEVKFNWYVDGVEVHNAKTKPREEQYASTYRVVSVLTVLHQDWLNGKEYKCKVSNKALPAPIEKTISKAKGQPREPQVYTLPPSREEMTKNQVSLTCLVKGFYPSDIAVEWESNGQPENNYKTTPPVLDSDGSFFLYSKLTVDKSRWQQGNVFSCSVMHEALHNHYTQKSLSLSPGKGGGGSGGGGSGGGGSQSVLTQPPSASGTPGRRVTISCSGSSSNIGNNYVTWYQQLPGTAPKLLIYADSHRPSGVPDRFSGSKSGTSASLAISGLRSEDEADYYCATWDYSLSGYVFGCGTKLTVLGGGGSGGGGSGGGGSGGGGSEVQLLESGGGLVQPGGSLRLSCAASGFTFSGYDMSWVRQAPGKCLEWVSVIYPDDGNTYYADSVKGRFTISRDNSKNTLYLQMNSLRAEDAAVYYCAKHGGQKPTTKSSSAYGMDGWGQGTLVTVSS
light: DIQMTQSPSSLSASVGDRVTITCKASQDVTPAVAWYQQKPGKAPKLLIYSTSSRYTGVPSRFSGSGSGTDFTFTISSLQPEDIATYYCQQHYTTPLTFGQGTKLEIKRTVAAPSVFIFPPSDEQLKSGTASVVCLLNNFYPREAKVQWKVDNALQSGNSQESVTEQDSKDSTYSLSSTLTLSKADYEKHKVYACEVTHQGLSSPVTKSFNRGEC
notes: IgG x scFv form, IgG1 N297A backbone
binding result [2]: binds | EC50 (read off the curve), NFkB-luc2/4-1BB Jurkat reporter with PD-L1 positive target cells [3]: ~0.1 nM

B4: ABLPNB.05 (B6x41B01.01; anti-PD-L1 B6 in IgG form and anti-4-1BB 41B01.01 in scFv form) (bispecific antibody)
heavy: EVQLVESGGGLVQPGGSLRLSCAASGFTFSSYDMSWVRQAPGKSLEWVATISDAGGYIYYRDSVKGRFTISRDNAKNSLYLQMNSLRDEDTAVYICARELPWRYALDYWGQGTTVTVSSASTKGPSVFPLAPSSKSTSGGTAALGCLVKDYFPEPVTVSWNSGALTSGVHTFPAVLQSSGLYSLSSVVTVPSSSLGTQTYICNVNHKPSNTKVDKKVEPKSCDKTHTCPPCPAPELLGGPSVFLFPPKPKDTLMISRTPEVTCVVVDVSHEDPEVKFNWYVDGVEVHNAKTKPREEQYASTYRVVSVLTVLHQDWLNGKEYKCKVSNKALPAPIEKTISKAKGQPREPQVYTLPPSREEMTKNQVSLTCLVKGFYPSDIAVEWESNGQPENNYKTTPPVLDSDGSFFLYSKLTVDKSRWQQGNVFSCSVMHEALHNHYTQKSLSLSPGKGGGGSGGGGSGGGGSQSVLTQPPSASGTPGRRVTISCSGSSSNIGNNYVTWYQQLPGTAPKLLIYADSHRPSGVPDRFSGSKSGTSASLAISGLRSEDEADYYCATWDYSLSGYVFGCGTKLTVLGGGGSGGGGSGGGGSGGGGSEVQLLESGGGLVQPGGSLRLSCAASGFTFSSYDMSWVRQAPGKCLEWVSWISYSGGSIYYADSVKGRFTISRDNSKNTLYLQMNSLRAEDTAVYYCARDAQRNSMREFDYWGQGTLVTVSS
light: B3 light
notes: as for B3
binding result [4]: binds

B5: ABLPNB.04 (B6x41B01; anti-PD-L1 B6 in IgG form and anti-4-1BB 41B01 in scFv form) (bispecific antibody)
heavy: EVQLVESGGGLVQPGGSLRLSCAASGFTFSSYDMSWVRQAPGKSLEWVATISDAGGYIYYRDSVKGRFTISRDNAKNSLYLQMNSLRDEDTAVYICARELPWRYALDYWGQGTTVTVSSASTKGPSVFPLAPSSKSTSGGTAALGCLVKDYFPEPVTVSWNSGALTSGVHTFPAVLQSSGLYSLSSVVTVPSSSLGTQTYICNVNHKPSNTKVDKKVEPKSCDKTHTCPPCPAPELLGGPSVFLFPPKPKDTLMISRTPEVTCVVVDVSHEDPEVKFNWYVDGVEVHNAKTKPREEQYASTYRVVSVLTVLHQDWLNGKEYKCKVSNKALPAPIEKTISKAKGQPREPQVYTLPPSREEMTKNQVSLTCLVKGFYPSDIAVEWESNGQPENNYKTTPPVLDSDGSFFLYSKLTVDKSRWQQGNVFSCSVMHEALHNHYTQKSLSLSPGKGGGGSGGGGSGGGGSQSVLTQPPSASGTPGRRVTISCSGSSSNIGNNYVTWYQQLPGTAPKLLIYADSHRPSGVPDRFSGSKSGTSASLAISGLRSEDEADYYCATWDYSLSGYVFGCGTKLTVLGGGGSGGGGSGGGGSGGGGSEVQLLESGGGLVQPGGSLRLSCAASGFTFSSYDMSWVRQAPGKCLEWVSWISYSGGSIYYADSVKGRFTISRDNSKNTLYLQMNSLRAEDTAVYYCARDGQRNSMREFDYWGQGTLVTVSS
light: B3 light
notes: as for B3
binding result [5]: binds | EC50 (read off the curve) [6]: ~0.6 nM

B6: ABLPNB.07 (B6x41B01.03; anti-PD-L1 B6 in IgG form and anti-4-1BB 41B01.03 in scFv form) (bispecific antibody)
heavy: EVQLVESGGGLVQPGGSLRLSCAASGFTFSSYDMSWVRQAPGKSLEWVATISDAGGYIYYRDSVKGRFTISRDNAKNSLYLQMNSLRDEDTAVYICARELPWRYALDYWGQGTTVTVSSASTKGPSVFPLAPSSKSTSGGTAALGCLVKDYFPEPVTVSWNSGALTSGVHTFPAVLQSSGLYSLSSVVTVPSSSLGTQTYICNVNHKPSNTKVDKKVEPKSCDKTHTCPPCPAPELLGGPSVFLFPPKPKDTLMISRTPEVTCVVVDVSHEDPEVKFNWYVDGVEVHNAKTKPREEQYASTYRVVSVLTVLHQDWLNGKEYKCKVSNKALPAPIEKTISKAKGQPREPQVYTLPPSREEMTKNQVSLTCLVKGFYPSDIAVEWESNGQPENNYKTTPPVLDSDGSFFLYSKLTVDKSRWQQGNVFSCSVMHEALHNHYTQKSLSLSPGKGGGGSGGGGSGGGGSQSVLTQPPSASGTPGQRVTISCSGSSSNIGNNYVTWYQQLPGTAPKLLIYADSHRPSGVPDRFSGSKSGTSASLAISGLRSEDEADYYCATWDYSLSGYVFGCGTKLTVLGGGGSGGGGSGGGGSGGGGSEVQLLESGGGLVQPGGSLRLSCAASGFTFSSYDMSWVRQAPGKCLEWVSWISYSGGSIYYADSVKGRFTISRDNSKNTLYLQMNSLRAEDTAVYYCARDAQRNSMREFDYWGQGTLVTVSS
light: B3 light
notes: as for B3
EC50 (read off the curve) [7]: ~0.2 nM | EC50 (read off the curve) [6]: ~0.9 nM | EC50 (read off the curve), NFkB-luc2/4-1BB Jurkat reporter with PD-L1 positive target cells [8]: ~0.06 nM

B7: ABLPNB.06 (anti-PD-L1 B6 in IgG form and anti-4-1BB 41B01.02 in scFv form) (bispecific antibody)
heavy: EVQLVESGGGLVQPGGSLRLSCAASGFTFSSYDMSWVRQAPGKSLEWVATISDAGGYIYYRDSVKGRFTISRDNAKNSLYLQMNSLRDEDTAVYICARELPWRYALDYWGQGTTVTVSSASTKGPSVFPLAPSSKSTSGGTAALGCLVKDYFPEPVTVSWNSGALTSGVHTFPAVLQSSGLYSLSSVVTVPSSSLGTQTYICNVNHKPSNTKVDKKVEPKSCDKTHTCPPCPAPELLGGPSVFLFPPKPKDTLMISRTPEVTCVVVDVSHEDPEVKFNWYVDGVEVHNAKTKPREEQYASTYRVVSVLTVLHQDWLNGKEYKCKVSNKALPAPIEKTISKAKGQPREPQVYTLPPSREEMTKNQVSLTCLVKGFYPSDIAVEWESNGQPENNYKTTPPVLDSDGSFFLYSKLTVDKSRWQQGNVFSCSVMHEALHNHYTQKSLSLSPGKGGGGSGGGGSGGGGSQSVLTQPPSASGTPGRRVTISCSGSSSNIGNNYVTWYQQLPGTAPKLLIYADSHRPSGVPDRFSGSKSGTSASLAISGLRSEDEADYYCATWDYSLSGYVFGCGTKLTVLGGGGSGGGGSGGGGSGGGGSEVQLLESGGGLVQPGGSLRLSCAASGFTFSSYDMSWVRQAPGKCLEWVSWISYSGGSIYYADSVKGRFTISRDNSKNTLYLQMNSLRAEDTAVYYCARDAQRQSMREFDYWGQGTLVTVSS
light: B3 light
notes: as for B3
binding result [4]: binds | binding result [9]: binds

Other lines, results leading:

binding result [4]: binds | EC50 (read off the curve), NFkB-luc2/4-1BB Jurkat reporter with PD-L1 positive target cells [8]: ~0.09 nM
B8: ABLPNB.08 (B6x41B01.04; anti-PD-L1 B6 in IgG form and anti-4-1BB 41B01.04 in scFv form) (bispecific antibody)
heavy: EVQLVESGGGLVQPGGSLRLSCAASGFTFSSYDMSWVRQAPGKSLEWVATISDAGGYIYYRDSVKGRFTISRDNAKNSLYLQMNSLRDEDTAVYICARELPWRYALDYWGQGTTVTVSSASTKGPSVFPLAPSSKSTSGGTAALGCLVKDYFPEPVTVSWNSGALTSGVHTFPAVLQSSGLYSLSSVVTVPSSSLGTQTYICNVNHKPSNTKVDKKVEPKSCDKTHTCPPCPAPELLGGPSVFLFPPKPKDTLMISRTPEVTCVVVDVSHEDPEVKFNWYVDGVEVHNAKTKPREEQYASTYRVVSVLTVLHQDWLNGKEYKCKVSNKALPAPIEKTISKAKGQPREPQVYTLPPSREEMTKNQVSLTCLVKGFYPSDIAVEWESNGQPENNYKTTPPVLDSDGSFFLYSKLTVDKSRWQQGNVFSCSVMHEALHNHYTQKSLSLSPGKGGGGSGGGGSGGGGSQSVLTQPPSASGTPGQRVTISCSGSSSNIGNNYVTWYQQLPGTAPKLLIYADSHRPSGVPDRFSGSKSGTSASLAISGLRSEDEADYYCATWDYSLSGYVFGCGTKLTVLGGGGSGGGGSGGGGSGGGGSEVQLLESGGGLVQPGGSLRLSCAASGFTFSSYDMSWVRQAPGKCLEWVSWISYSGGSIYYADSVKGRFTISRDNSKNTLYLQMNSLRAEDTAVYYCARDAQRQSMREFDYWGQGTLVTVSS
light: B3 light
notes: as for B3

binding result [5]: binds | binding result [2]: binds
B9: ABLPNB.01 (H12x41B01; anti-PD-L1 H12 in IgG form and anti-4-1BB 41B01 in scFv form) (bispecific antibody)
heavy: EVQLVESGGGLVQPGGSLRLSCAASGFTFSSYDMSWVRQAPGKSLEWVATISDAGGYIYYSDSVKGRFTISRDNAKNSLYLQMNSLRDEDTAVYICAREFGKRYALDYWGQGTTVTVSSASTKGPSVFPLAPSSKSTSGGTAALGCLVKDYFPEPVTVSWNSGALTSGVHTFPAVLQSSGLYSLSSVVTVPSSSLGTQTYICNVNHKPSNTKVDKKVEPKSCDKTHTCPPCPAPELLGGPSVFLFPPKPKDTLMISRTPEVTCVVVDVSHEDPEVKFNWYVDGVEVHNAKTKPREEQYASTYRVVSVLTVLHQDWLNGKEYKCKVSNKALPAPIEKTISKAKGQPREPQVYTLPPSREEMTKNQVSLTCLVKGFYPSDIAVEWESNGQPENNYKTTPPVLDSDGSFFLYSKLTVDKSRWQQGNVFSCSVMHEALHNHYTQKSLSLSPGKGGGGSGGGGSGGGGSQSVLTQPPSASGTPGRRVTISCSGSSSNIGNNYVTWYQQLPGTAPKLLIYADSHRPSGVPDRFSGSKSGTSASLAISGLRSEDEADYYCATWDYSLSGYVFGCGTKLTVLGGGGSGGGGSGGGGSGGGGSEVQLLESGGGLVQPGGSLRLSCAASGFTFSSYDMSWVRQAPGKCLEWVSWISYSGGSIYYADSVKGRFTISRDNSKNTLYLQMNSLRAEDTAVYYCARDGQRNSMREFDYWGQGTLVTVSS
light: B3 light
notes: IgG x scFv form; The heavy component is the H12 heavy chain (IgG1 N297A), a linker, and the scFv (VL-linker-VH, disulfide VL103-VH44)

EC50 (read off the curve) (human 4-1BB-Fc protein): ~0.08 nM | EC50 (read off the curve), NFkB-luc2/4-1BB Jurkat reporter, Fc-crosslinked antibody [10]: ~4 nM | Kd [11]: 0.18 nM | koff [11]: 0.000119 s⁻¹ | kon [11]: 658000 M⁻¹ s⁻¹
B10: 41B01 (anti-4-1BB monoclonal antibody) (antibody, V domains shown)
VH: EVQLLESGGGLVQPGGSLRLSCAASGFTFSSYDMSWVRQAPGKGLEWVSWISYSGGSIYYADSVKGRFTISRDNSKNTLYLQMNSLRAEDTAVYYCARDGQRNSMREFDYWGQGTLVTVSS
VL: QSVLTQPPSASGTPGRRVTISCSGSSSNIGNNYVTWYQQLPGTAPKLLIYADSHRPSGVPDRFSGSKSGTSASLAISGLRSEDEADYYCATWDYSLSGYVFGGGTKLTVL
notes: Detected with anti-human IgG, so it was tested as a human IgG

EC50 (read off the curve) (human 4-1BB-Fc protein): ~0.2 nM | Kd [11]: 1.01 nM | koff [11]: 0.000603 s⁻¹ | kon [11]: 595000 M⁻¹ s⁻¹
B11: 41B02 (anti-4-1BB monoclonal antibody) (antibody, V domains shown)
VH: EVQLLESGGGLVQPGGSLRLSCAASGFTFSGYDMSWVRQAPGKGLEWVSVIYPDDGNTYYADSVKGRFTISRDNSKNTLYLQMNSLRAEDAAVYYCAKHGGQKPTTKSSSAYGMDGWGQGTLVTVSS
VL: B10 VL
notes: Detected with anti-human IgG
